In the assay the target is T1, soluble domain of Arabidopsis thaliana cytochrome c1 (Arabidopsis thaliana, UniProt Q9FKS5 64-265).
T1 construct: Hemeprotein; Immobilised on Au(111) through Cys10 (AFM, EC-STM) or by amine coupling on the biochip (SPR); also called Cc1; plant cytochrome Cc1; source: E. coli BL21 (DE3), pET-Cc1 with pEC86 (ccmABCDEFGH), purified (Nuvia Q anion exchange, ENrich SEC 70)
T1 sequence (looked up): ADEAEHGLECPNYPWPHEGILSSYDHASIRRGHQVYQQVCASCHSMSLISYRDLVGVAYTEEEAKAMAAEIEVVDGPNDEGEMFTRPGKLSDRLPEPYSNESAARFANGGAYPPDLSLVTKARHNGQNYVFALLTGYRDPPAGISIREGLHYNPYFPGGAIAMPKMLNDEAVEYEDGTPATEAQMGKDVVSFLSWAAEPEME
The assay can be described thus: SPR; SPRi; Cc1 immobilised by direct amine coupling on a CS SPRi-Biochip (10 and 15 uM drops); WT or Y48pCMF Cc flowed at 2.5 to 10 uM, 50 uL/min; 298 K; 10 mM sodium phosphate buffer pH 6.5; reference spots with rabbit serum albumin subtracted; 1:1 binding model. Particulars: both partners purified. A general note: Surface plasmon resonance follows binding to a sensor surface in real time, without labels.

B1: Homo sapiens WT cytochrome c (natural protein)
chain: not shown
notes: cytochrome c, human, CYCS gene in plasmid pBTR1-WT; Hemeprotein (heme c attached by the co-expressed heme lyase); Used as analyte in SPR; also called Cc; WT Cc; source: E. coli BL21 (DE3), pBTR1-WT with yeast Cc heme lyase (CYC3), purified (Nuvia S cation exchange)
B1: the Kd (commonly the constant that tells how readily two partners part at equilibrium) was 527 nM, the koff (commonly the rate constant with which the complex falls apart) amounted to 0.00318 s⁻¹ and the on-rate constant (kon) (commonly a measure of how fast the partners come together) was 6540 M⁻¹ s⁻¹.

Values taken from article PMC9675734, “Phosphorylation disrupts long-distance electron transport in cytochrome c” (Nature Communications, 2022).
